Starred links: 1 amine or outer side, 2 acyl side, 3 side chain; linkers in the order of their positions; H or OH if unused. Positions of bridges follow the written chain, without caps; N, C: chain ends. Non-standard residues stand in square brackets, D forms with d. Primed or numbered codes have the meaning given here. *: point of attachment. PyrS2″ = (S)-3-amino-1-((pent-4-en-1-yloxy)carbonyl)pyrrolidine-3-carboxylic acid (stapling residue), C=CCCCOC(=O)N1CC[C@@](N[*:1])(C(=O)[*:2])C1; B5(16) = 2-amino-2-(pent-4-en-1-yl)hept-6-enoic acid = 2,2-bis(4-pentenyl)glycine (stitching residue), C=CCCCC(CCCC=C)(N[*:1])C(=O)[*:2]; B5(4) = 2,2-bis(4-pentenyl)glycine = 2-amino-2-(pent-4-en-1-yl)hept-6-enoic acid (stitching residue), C=CCCCC(CCCC=C)(N[*:1])C(=O)[*:2]; B5(5) = 2,2-bis(4-pentenyl)glycine, 2-amino-2-(pent-4-en-1-yl)hept-6-enoic acid (stitching residue), C=CCCCC(CCCC=C)(N[*:1])C(=O)[*:2]; PyrS = (S)-1-((allyloxy)carbonyl)-3-aminopyrrolidine-3-carboxylic acid, C=CCOC(=O)N1CC[C@@](N[*:1])(C(=O)[*:2])C1; Phe(2-Cl) = N[C@@H](Cc1ccccc1Cl)C(=O)O; Phe(4-F) = N[C@@H](Cc1ccc(F)cc1)C(=O)O; Bta = N[C@@H](Cc1csc2ccccc12)C(=O)O; αAllylPro = C=CC[C@@]1(C(=O)O)CCCN1; tBuAla = CC(C)(C)C[C@H](N)C(=O)O; R8 = C=CCCCCCC[C@@](C)(N)C(=O)O; 3Thi = N[C@@H](Cc1ccsc1)C(=O)O; S8 = C=CCCCCCC[C@](C)(N)C(=O)O; TfeGA″ = not defined here; Ms = CS(=O)(=O)*
T1: full-length beta-Catenin (Uniprot ID P35222) (Homo sapiens (Human), UniProt P35222 2-781)
T1 construct: also called bCat; B-Catenin
T1 sequence: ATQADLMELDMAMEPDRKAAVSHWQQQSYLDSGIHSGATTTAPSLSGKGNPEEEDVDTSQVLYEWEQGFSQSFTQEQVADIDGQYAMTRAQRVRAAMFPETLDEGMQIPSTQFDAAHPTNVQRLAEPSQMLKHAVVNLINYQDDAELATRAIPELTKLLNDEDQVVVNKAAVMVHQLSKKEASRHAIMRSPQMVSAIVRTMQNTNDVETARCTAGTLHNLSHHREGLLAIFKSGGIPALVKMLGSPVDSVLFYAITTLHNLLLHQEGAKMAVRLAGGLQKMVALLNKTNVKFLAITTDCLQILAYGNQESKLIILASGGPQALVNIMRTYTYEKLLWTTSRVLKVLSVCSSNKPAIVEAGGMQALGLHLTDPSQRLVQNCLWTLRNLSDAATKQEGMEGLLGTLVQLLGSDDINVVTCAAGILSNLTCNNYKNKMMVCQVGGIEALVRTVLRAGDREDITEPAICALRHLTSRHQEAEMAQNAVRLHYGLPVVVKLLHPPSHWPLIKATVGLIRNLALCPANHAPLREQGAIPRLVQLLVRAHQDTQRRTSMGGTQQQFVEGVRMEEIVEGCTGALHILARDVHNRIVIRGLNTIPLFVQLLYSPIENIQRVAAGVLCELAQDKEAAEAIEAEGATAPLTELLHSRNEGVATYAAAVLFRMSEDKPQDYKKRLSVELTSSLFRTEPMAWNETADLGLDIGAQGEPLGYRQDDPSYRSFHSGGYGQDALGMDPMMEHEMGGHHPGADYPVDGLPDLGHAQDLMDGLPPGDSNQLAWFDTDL

T2: beta-catenin in DLD1 TCF/LEF luciferase reporter cells (UniProt P35222 1-781)
T2 sequence (looked up): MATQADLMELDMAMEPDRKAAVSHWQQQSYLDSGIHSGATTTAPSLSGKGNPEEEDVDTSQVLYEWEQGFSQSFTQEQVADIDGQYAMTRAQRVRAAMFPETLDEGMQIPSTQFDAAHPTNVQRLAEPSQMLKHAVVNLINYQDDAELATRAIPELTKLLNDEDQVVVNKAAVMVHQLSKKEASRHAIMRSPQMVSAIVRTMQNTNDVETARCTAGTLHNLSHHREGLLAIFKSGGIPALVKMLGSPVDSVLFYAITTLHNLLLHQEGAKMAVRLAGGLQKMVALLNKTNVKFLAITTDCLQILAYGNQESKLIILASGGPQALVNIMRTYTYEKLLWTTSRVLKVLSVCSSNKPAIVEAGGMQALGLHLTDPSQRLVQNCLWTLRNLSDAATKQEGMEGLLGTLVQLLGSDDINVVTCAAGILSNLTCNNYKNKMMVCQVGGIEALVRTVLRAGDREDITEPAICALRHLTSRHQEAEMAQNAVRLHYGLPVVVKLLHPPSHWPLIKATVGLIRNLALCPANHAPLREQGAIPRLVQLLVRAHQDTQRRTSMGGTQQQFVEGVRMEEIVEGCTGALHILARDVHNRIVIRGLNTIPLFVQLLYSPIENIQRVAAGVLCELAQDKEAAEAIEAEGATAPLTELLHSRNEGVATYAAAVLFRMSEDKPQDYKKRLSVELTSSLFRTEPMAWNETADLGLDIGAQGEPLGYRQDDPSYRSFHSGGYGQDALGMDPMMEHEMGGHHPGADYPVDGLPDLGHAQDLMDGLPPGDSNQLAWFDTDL

T3: B-cat-Halo (UniProt P35222 1-781)
T3 sequence (looked up): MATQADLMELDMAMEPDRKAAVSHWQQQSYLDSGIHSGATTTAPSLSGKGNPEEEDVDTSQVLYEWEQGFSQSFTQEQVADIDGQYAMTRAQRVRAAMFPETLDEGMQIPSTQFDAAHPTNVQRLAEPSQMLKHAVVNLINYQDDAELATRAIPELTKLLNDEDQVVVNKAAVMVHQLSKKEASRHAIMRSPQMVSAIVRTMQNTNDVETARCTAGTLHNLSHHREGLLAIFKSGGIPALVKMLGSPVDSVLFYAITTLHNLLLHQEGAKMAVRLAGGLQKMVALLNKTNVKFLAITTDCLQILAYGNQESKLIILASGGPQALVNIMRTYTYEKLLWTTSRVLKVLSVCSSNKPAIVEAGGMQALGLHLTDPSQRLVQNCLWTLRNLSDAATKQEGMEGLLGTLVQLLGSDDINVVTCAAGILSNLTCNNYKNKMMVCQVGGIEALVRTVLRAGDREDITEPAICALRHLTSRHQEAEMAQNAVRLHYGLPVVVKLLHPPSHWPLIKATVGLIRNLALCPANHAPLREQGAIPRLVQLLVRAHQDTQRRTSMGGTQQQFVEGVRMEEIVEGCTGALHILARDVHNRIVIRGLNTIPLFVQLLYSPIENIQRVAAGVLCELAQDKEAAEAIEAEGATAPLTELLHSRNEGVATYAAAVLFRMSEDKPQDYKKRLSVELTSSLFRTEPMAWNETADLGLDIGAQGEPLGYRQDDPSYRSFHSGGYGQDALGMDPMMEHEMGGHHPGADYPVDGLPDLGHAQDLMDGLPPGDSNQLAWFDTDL

T4: full-length beta-Catenin (Uniprot ID P35222) (Homo sapiens (Human), UniProt P35222 1-781)
T4 construct: also called bCat; B-Catenin
T4 sequence: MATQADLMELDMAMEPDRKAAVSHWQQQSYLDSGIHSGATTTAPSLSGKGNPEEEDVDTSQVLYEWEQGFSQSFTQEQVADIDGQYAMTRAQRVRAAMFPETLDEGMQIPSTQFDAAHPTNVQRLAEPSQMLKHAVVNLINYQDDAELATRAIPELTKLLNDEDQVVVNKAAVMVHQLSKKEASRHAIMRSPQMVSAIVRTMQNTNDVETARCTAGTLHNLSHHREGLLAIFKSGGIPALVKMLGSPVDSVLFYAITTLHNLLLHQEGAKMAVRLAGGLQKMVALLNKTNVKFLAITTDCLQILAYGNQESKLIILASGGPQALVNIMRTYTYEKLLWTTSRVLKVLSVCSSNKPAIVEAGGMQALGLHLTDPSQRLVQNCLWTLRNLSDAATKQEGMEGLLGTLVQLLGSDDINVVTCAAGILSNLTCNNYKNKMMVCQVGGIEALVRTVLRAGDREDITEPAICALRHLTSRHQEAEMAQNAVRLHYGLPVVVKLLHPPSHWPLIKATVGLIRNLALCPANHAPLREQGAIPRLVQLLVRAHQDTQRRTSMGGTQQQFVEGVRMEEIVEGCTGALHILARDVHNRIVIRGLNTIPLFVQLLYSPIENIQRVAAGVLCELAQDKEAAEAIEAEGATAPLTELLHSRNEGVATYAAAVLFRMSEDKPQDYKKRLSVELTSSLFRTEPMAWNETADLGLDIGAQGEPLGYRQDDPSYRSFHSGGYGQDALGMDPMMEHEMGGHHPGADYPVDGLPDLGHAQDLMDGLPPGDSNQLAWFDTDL

T5: Bcat-Halo (UniProt P35222 1-781, HaloTag NanoBRET 618 Ligand bound to the Halo part)
T5 construct: Expressed in transfected HEK293 cells (NanoBRET acceptor construct); also called beta-catenin HaloTag fusion; not shown: HaloTag
T5 sequence (looked up): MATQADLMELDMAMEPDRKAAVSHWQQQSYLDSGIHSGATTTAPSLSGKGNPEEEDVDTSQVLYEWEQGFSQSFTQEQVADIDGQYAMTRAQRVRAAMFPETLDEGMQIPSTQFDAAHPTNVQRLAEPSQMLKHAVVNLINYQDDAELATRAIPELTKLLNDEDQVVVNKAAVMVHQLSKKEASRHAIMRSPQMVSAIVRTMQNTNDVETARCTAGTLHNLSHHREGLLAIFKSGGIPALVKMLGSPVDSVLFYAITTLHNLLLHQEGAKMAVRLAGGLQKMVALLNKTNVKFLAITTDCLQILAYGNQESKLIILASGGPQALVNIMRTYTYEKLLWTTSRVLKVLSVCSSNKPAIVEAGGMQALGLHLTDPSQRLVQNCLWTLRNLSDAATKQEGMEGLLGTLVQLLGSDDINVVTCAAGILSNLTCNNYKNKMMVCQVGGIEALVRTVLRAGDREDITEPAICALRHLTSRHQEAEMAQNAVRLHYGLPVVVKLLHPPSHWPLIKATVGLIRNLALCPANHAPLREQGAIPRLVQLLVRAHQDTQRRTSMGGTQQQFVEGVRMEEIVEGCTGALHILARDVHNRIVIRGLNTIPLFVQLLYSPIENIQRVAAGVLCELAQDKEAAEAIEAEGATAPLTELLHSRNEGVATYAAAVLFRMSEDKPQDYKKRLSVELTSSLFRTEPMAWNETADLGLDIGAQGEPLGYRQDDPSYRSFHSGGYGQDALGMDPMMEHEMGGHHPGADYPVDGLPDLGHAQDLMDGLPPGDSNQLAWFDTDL

T6: full-length beta-Catenin (Uniprot ID P35222) (Homo sapiens (Human), UniProt P35222 2-781)
T6 construct: Used at 10 nM in the FP probe solution as 'full-length'; Also used here for the endogenous beta-catenin of the DLD1 TCF/LEF reporter cells (functional rows); also called bCat; B-Catenin
T6 sequence: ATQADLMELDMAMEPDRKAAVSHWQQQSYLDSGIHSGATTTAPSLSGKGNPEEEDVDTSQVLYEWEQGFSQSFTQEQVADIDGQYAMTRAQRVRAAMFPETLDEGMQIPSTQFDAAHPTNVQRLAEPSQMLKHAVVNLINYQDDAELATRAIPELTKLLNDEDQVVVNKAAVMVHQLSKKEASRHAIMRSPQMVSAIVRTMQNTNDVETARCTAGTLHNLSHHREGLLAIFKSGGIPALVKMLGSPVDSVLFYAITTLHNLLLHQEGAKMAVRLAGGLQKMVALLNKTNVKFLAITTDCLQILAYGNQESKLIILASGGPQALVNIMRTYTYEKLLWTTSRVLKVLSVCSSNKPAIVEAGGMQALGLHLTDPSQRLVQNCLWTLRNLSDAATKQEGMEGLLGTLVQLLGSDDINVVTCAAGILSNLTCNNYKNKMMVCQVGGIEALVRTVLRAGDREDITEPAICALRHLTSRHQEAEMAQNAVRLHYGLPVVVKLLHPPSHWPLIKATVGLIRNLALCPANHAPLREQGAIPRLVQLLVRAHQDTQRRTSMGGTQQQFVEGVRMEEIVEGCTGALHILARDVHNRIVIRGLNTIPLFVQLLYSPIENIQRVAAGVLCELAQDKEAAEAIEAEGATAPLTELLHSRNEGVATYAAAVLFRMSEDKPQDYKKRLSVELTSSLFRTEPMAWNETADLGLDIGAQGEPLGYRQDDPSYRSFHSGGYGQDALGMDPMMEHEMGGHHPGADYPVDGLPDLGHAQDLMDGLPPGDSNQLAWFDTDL


Legend:
[1] = target: T1, full-length beta-Catenin (Uniprot ID …); assay: fluorescence polarization competition; peptide titrated against 10 nM full-length beta-catenin with 10 nM 5FAM-TCF4(10-53) probe
Protocol: (§1) The plate was incubated protected from light for 60 minutes at 20° C. prior to read. Reads were performed on a CLARIOstar plate reader (BMG Labtech) in duplicate, and data were fitted to a 1:1 binding model with hill slope using an in-house script. All provided concentrations are final concentrations.

[2] = target: T2, beta-catenin in DLD1 TCF/LEF luciferase …; assay: cell-based or functional assay
B-cat-Halo = target: T3, B-cat-Halo; assay: cell-based or functional assay
[3] = target: T4, full-length beta-Catenin (Uniprot ID …); assay: fluorescence polarization competition; peptide titrated against full-length beta-catenin + 5FAM-TCF4(10-53)
Protocol: as §1

Bcat-Halo = target: T5, Bcat-Halo; assay: NanoBRET Abs IC50, HEK293 cells transfected with Bcat-Halo and TCF4-Luc (competitor: TCF4-Luc); cellular assay
[4] = target: T6, full-length beta-Catenin (Uniprot ID …); assay: fluorescence polarization competition; 10 nM full-length beta-catenin + 10 nM 5FAM-TCF4 10-53 as competitor probe
Protocol: as §1

IC50 (Bcat-Halo) | EC50 [4] | Binder | also measured
– | – | Ac-FDA[R8]DDAA[Phe(4-F)]V[PyrS]FWQ-NH2 (staple 4-11) [I-78: Ac-Phe-Asp-Ala-R8-Asp-Asp-Ala-Ala-4FF-Val-PyrS-Phe-Trp-Gln-NH2 (stapled peptide)] | IC50 [1]: 5000 nM
– | – | Ac-[αAllylPro]D[tBuAla][B5(4)]D[TfeGA″]AAFL[PyrS2″][3Thi][Bta]T-NH2 (staple 1-4, 4-11; reading uncertain) [I-1706] | DLD1 4% Abs IC50 [2]: 2700 nM; NanoBRET Abs IC50 (B-cat-Halo): 4800 nM
– | – | Ms-[αAllylPro]DI[B5(5)]DEAAFQ[S8]F[Bta]Q-NH2 (staple 1-4, 4-11, separate staple-isomer composition (earlier eluting HPLC peak); also called MeSO2-PL3-Asp-Ile-B5-Asp-Glu-Ala-Ala-Phe-Gln-S8-Phe-BztA-Gln-NH2) [I-710] | IC50 [3]: 73 nM
> 20000 nM | 8 nM | Ac-[αAllylPro]DF[B5(16)]DDAAFN[PyrS2″][Phe(2-Cl)][Bta]Q-NH2 (staple 1-4, 4-11, Stapled (stitched) peptide composition) [I-1041] | –
23900 nM | 5 nM | Ac-[αAllylPro]DF[B5(16)]DDAAFS[PyrS2″][Phe(2-Cl)][Bta]Q-NH2 (staple 1-4, 4-11, Stapled (stitched) peptide composition) [I-1045] | –
